Experimental findings from paper PMC7229144, “Tetracycline-inactivating enzymes from environmental, human commensal, and pathogenic bacteria cause broad-spectrum tetracycline resistance” (Communications Biology, 2020) are described below.

By IC50 is commonly meant the point on the concentration scale where inhibition reaches its midpoint. One may read the Km as the substrate concentration at which the rate is half of its maximum. In general, kcat refers to the maximal rate divided by the concentration of active sites.

Series [1] deals with T1, Tet(X7) (human gut metagenome, UniProt Z9HWK3IZF4). The series can be described thus: absorbance, initial velocity of tigecycline degradation. The class given is biochemical. The conditions noted are these: read-out: IC50 (apparent).
Series [2] relates to CN(C)[C@@H]1C(=O)C(C(N)=O)=C(O)[C@@]2(O)C(=O)C3=C(O)c4c(O)c(NC(=O)CN5CCCC5)cc(F)c4C[C@H]3C[C@@H]12. The series can be described thus: purified protein. As to conditions: 0-40 µM substrate, 504 µM NADPH, 5.04 mM MgCl2, 0.4 µM enzyme, 100 mM TAPS pH 8.5, room temperature.
Series [3] deals with CN(C)c1cc(CNCC(C)(C)C)c(O)c2c1C[C@H]1C[C@H]3[C@H](N(C)C)C(=O)C(C(N)=O)=C(O)[C@@]3(O)C(=O)C1=C2O. The series can be described thus: purified protein. The conditions noted are these: 0-40 µM substrate, 504 µM NADPH, 5.04 mM MgCl2, 0.4 µM enzyme, 100 mM TAPS pH 8.5, room temperature.
Series [4] relates to CN(C)c1cc(NC(=O)CNC(C)(C)C)c(O)c2c1C[C@H]1C[C@H]3[C@H](N(C)C)C(=O)C(C(N)=O)=C(O)[C@@]3(O)C(=O)C1=C2O. The series can be described thus: purified protein. The conditions noted are these: 0-40 µM substrate, 504 µM NADPH, 5.04 mM MgCl2, 0.4 µM enzyme, 100 mM TAPS pH 8.5, room temperature.
The target of series [5] is T1, Tet(X7). The class given is binding. The conditions noted are these: FAD in IN-conformation.

T1 sequence (Z9HWK3IZF4 21-399 limits assumed): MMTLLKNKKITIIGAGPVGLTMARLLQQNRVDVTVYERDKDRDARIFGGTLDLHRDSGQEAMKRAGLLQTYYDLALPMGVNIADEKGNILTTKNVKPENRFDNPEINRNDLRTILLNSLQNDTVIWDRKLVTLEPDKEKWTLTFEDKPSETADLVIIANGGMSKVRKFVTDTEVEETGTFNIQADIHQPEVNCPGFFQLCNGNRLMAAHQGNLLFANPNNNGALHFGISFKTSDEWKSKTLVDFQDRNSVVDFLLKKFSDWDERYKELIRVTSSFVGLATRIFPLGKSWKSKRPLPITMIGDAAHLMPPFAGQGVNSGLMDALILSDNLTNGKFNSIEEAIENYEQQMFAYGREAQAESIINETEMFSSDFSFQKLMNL

With `Cc1c2c(c(O)c3c(O)cccc13)C(=O)[C@]1(O)C(=O)C(C(N)=O)=C(O)[C@@H](N(C)C)[C@@H]1C2` [anhydrotetracycline], the IC50 at Tet(X7) [1] came out at 1060 ± 108 nM.
On to `CN(C)[C@@H]1C(=O)C(C(N)=O)=C(O)[C@@]2(O)C(=O)c3c(cc4c(Cl)ccc(O)c4c3O)C[C@@H]12` [anhydrodemeclocycline], for which the concentration for half-maximal inhibition (IC50) at Tet(X7) [1] was 260 ± 40 nM.
Consider Tet(X7) (uncultured bacterium), for which the Km in series [2] turned out to be 6 ± 1 µM; in series [3], 4 ± 0.4 µM; in series [4] it was 4 ± 0.4 µM. In addition, the kcat in series [3] was found to be 0.0033 ± 0.0001 s⁻¹; in series [4], 0.005 ± 0.00017 s⁻¹.
Regarding `Cc1cc2nc3c(=O)[nH]c(=O)nc-3n(C[C@H](O)[C@H](O)[C@H](O)COP(=O)(O)OP(=O)(O)OC[C@H]3O[C@@H](n4cnc5c(N)ncnc54)[C@H](O)[C@@H]3O)c2cc1C` [FAD], on Tet(X7) [5], the “X-ray crystal structure, 2.55 Å” value is “The FAD in Tet(X7) retains an IN-conformation”.
